Measurements from the supplement of paper PMC9112550, “Optimization of the antimicrobial peptide Bac7 by deep mutational scanning” (BMC Biology, 2022).

test system: Escherichia coli TOP10; experiment: shrunken log2 fold change of peptide-encoding DNA abundance (4.5 h post-induction vs induction); higher = less antimicrobial activity (less host growth inhibition); conditions: time post-induction: 4.5 h; library: site-saturation at positions 5, 18, 19, 20
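Further: peptides expressed intracellularly from a pBAD plasmid library in pooled LB shake-flask culture, induced with 0.3% L-arabinose, DNA abundance read by NGS, three biological replicates, DESeq2 with apeglm shrinkage.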

Row | Sequence | shrunken log2 fold change
1 | RRIRGRPPRLPRPRPRPTVFPRP | 0.993
2 | RRIRFRPPRLPRPRPRPHHSPRP | -0.883
3 | RRIRPRPPRLPRPRPRPYTRPRP | -0.853
4 | RRIRRRPPRLPRPRPRPKAAPRP | 0.596
5 | RRIRGRPPRLPRPRPRPQDGPRP | 0.0108
6 | RRIRRRPPRLPRPRPRPTWIPRP | 0.53
7 | RRIRGRPPRLPRPRPRPVQQPRP | 0.515
8 | RRIRQRPPRLPRPRPRPAKIPRP | 0.00963
9 | RRIRVRPPRLPRPRPRPELKPRP | -0.341
10 | RRIRERPPRLPRPRPRPPPMPRP | 0.271
11 | RRIRIRPPRLPRPRPRPHHCPRP | -0.00699
12 | RRIRQRPPRLPRPRPRPHAKPRP | 0.12
13 | RRIRFRPPRLPRPRPRPIAWPRP | -0.0725
14 | RRIRIRPPRLPRPRPRPCQHPRP | -0.183
15 | RRIRWRPPRLPRPRPRPCTMPRP | -0.00405
16 | RRIRARPPRLPRPRPRPNMVPRP | -0.175
17 | RRIRVRPPRLPRPRPRPRDFPRP | 0.0486
18 | RRIRMRPPRLPRPRPRPVDTPRP | 0.361
19 | RRIRERPPRLPRPRPRPSPGPRP | -0.00119
20 | RRIRNRPPRLPRPRPRPEAAPRP | 0.902
21 | RRIRKRPPRLPRPRPRPEFFPRP | 0.7
22 | RRIRFRPPRLPRPRPRPTHAPRP | 0.207
23 | RRIRMRPPRLPRPRPRPHQHPRP | -0.0409
24 | RRIRYRPPRLPRPRPRPRYEPRP | -0.415
25 | RRIRFRPPRLPRPRPRPLYHPRP | -0.859

Row | Sequence | shrunken log2 fold change
26 | RRIRQRPPRLPRPRPRPPSNPRP | -0.481
27 | RRIRDRPPRLPRPRPRPILTPRP | -0.0144
28 | RRIRNRPPRLPRPRPRPIISPRP | 0.0108
29 | RRIRVRPPRLPRPRPRPYSAPRP | -0.805
30 | RRIRFRPPRLPRPRPRPFWRPRP | 0.366
31 | RRIRLRPPRLPRPRPRPMIDPRP | -0.0169
32 | RRIRTRPPRLPRPRPRPPYNPRP | -0.252
33 | RRIRWRPPRLPRPRPRPMRAPRP | 1.2
34 | RRIRQRPPRLPRPRPRPMYHPRP | -0.477
35 | RRIRVRPPRLPRPRPRPKKAPRP | 0.157
36 | RRIRNRPPRLPRPRPRPICRPRP | -0.0024
37 | RRIRGRPPRLPRPRPRPVRDPRP | 0.401
38 | RRIRFRPPRLPRPRPRPAARPRP | 0.192
39 | RRIRRRPPRLPRPRPRPARAPRP | 0.523
40 | RRIRVRPPRLPRPRPRPYYKPRP | -0.67
41 | RRIRMRPPRLPRPRPRPHVSPRP | -0.0138
42 | RRIRARPPRLPRPRPRPEDVPRP | 0.931
43 | RRIRIRPPRLPRPRPRPGCSPRP | -0.391
44 | RRIRHRPPRLPRPRPRPMHQPRP | -0.108
45 | RRIRIRPPRLPRPRPRPCGEPRP | -0.0104
46 | RRIRYRPPRLPRPRPRPNLEPRP | -0.113
47 | RRIRHRPPRLPRPRPRPKYAPRP | -0.0413
48 | RRIRNRPPRLPRPRPRPAPYPRP | 0.0296
49 | RRIRMRPPRLPRPRPRPKGHPRP | 0.0377
50 | RRIRVRPPRLPRPRPRPSAPPRP | 0.358

Row | Sequence | shrunken log2 fold change
51 | RRIRWRPPRLPRPRPRPLIEPRP | 0.00804
52 | RRIRVRPPRLPRPRPRPSEAPRP | 0.0122
53 | RRIRDRPPRLPRPRPRPRRHPRP | 0.172
54 | RRIRGRPPRLPRPRPRPPTSPRP | 0.879
55 | RRIRPRPPRLPRPRPRPKKRPRP | 0.136
56 | RRIRPRPPRLPRPRPRPRFAPRP | 0.323
57 | RRIRNRPPRLPRPRPRPNCKPRP | -0.424
58 | RRIRERPPRLPRPRPRPFSGPRP | -0.55
59 | RRIRKRPPRLPRPRPRPFRNPRP | -0.309
60 | RRIRCRPPRLPRPRPRPNWHPRP | -0.271
61 | RRIRKRPPRLPRPRPRPGHPPRP | 0.943
62 | RRIRSRPPRLPRPRPRPIEIPRP | -0.00473
63 | RRIRARPPRLPRPRPRPLYNPRP | -0.225
64 | RRIRTRPPRLPRPRPRPILRPRP | -0.0606
65 | RRIRPRPPRLPRPRPRPWLMPRP | -0.118
66 | RRIRHRPPRLPRPRPRPKDCPRP | 0.00375
67 | RRIRARPPRLPRPRPRPSDVPRP | 0.162
68 | RRIRPRPPRLPRPRPRPRDTPRP | -0.0427
69 | RRIRARPPRLPRPRPRPDCFPRP | 0.715
70 | RRIRKRPPRLPRPRPRPYHAPRP | 0.0039
71 | RRIRTRPPRLPRPRPRPLQPPRP | 0.161
72 | RRIRARPPRLPRPRPRPSEWPRP | 0.0632
73 | RRIRKRPPRLPRPRPRPCQIPRP | 0.0947
74 | RRIRDRPPRLPRPRPRPYHHPRP | -0.0229
75 | RRIRQRPPRLPRPRPRPTLKPRP | -0.0628

Row | Sequence | shrunken log2 fold change
76 | RRIRRRPPRLPRPRPRPALGPRP | 0.269
77 | RRIRMRPPRLPRPRPRPGSHPRP | 0.0978
78 | RRIRKRPPRLPRPRPRPMHFPRP | 0.0573
79 | RRIRSRPPRLPRPRPRPMQKPRP | -0.0221
80 | RRIRFRPPRLPRPRPRPEMYPRP | -0.00146
81 | RRIRARPPRLPRPRPRPNRIPRP | -0.215
82 | RRIRPRPPRLPRPRPRPLCLPRP | -0.294
83 | RRIRVRPPRLPRPRPRPLYGPRP | -0.426
84 | RRIRNRPPRLPRPRPRPFHCPRP | -0.536
85 | RRIRARPPRLPRPRPRPWRCPRP | 0.0472
86 | RRIRSRPPRLPRPRPRPCAEPRP | 0.0817
87 | RRIRWRPPRLPRPRPRPCGNPRP | 0.0696
88 | RRIRPRPPRLPRPRPRPYQVPRP | -0.203
89 | RRIRFRPPRLPRPRPRPVAHPRP | -0.113
90 | RRIRKRPPRLPRPRPRPTAAPRP | 0.757
91 | RRIRFRPPRLPRPRPRPCLCPRP | -0.0404
92 | RRIRDRPPRLPRPRPRPQAEPRP | -0.129
93 | RRIRDRPPRLPRPRPRPWLAPRP | 0.171
94 | RRIRHRPPRLPRPRPRPQGLPRP | -0.247
95 | RRIRNRPPRLPRPRPRPMRKPRP | 0.481
96 | RRIRMRPPRLPRPRPRPKTRPRP | 0.994
97 | RRIRWRPPRLPRPRPRPALAPRP | 0.555
98 | RRIRRRPPRLPRPRPRPIRVPRP | 0.244
99 | RRIRERPPRLPRPRPRPDFDPRP | -0.356
100 | RRIRARPPRLPRPRPRPDPSPRP | 0.508

Row | Sequence | shrunken log2 fold change
101 | RRIRARPPRLPRPRPRPSKIPRP | -0.265
102 | RRIRRRPPRLPRPRPRPLHQPRP | 0.32
103 | RRIRARPPRLPRPRPRPCAYPRP | -0.399
104 | RRIRRRPPRLPRPRPRPYQAPRP | -0.303
105 | RRIRFRPPRLPRPRPRPCYYPRP | -0.401
106 | RRIRHRPPRLPRPRPRPRHKPRP | -0.556
107 | RRIRCRPPRLPRPRPRPYEVPRP | -0.0152
108 | RRIRNRPPRLPRPRPRPQFDPRP | 0.152
109 | RRIRLRPPRLPRPRPRPVCKPRP | 0.000959
110 | RRIRWRPPRLPRPRPRPKRPPRP | 0.873
111 | RRIRGRPPRLPRPRPRPKYVPRP | 0.0402
112 | RRIRPRPPRLPRPRPRPLIYPRP | -0.457
113 | RRIRGRPPRLPRPRPRPESRPRP | 0.831
114 | RRIRVRPPRLPRPRPRPCFQPRP | -0.313
115 | RRIRCRPPRLPRPRPRPNPDPRP | -0.306
116 | RRIRWRPPRLPRPRPRPHGVPRP | 0.0746
117 | RRIRIRPPRLPRPRPRPYTPPRP | -0.825
118 | RRIRTRPPRLPRPRPRPRRMPRP | 0.15
119 | RRIRKRPPRLPRPRPRPNGCPRP | -0.0163
120 | RRIRRRPPRLPRPRPRPQWKPRP | 0.016
121 | RRIRNRPPRLPRPRPRPCECPRP | 0.0219
122 | RRIRFRPPRLPRPRPRPDSVPRP | -0.54
123 | RRIRLRPPRLPRPRPRPHIFPRP | -0.747
124 | RRIRERPPRLPRPRPRPKFFPRP | -0.0207
125 | RRIRERPPRLPRPRPRPGQLPRP | -0.131

Row | Sequence | shrunken log2 fold change
126 | RRIRIRPPRLPRPRPRPGWYPRP | -0.221
127 | RRIRMRPPRLPRPRPRPLREPRP | 3.88
128 | RRIRRRPPRLPRPRPRPMTCPRP | 0.129
129 | RRIRMRPPRLPRPRPRPHQYPRP | -0.41
130 | RRIRRRPPRLPRPRPRPFNKPRP | -0.712
131 | RRIRCRPPRLPRPRPRPHYFPRP | -0.324
132 | RRIRQRPPRLPRPRPRPQRAPRP | 0.224
133 | RRIRKRPPRLPRPRPRPWFLPRP | -0.157
134 | RRIRRRPPRLPRPRPRPSCRPRP | 0.0338
135 | RRIRLRPPRLPRPRPRPHLTPRP | -0.241
136 | RRIRPRPPRLPRPRPRPIWHPRP | -0.0776
137 | RRIRPRPPRLPRPRPRPPGYPRP | 0.116
138 | RRIRPRPPRLPRPRPRPSHPPRP | -0.03
139 | RRIRRRPPRLPRPRPRPNPNPRP | 0.369
140 | RRIRKRPPRLPRPRPRPDCVPRP | 0.342
141 | RRIRTRPPRLPRPRPRPMQCPRP | -0.00968
142 | RRIRIRPPRLPRPRPRPCAEPRP | -0.358
143 | RRIRRRPPRLPRPRPRPKMIPRP | 0.103
144 | RRIRIRPPRLPRPRPRPAYAPRP | -0.197
145 | RRIRRRPPRLPRPRPRPWDNPRP | 0.0234
146 | RRIRARPPRLPRPRPRPVEKPRP | 0.347
147 | RRIRIRPPRLPRPRPRPALKPRP | -0.0298
148 | RRIRFRPPRLPRPRPRPEPYPRP | 0.0129
149 | RRIRPRPPRLPRPRPRPRHFPRP | 0.168
150 | RRIRTRPPRLPRPRPRPWVIPRP | 0.0147
